In this series the test system is T1, KguR (MBP-KguR-His6) (Escherichia coli (uropathogenic, CFT073)), ORF:aaa0ecb8.
T1 sequence: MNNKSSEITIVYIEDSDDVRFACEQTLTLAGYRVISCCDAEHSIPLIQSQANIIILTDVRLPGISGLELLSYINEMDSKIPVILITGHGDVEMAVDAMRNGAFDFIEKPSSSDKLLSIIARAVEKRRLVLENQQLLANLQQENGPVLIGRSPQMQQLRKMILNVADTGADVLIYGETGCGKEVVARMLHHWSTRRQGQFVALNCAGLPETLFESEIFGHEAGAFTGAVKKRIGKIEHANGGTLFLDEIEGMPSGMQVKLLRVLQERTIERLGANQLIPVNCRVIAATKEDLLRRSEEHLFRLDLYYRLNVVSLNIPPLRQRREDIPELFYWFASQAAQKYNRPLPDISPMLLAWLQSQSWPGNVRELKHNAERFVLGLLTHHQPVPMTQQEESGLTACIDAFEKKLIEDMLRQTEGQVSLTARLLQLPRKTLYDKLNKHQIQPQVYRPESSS
Kind of series: EMSA. (In general: Mobility shift assays separate free from complexed probe on a gel.)

Consider “CATTCATCATCCATTGAATGCATTTATATTTATCATCAGTATATTCCCTGAACAATGTTTGCGAGAACCAAAAGAGTGCCATTGTGTGAATGTGTAAGCAGAATAACCGTGGCAATGTGTGGTTTATCGCACAGGTATTCCAAATGTGATCATGCTCTTTTTATGTGACAAATCCGCAGATAATCCTTCCTTTCCCCCGCGGTTGGCGTTATGGTCAGATGGTT (double strand) [PkguS]”, for which the binding result is reported as “binds”.

The values above are taken from publication PMC8716947.
